Test results as given in patent US20030180296A1 (Human Genome Sciences, published 2003).

How the values were obtained:
TR7-Fc fusion protein [1] = biological target: T1, TR7-Fc fusion protein (human, UniProt O14763 52-184); assay: competition ELISA, inhibition of biotinylated TRAIL binding to captured TR7-Fc; unlabelled TRAIL as competitor
T1 construct: also called TR7-Fc receptor; TRAILR2; not shown: Fc region
Method: (§1) Goat anti-human Fc is diluted to 0.1 micrograms/ml in coating buffer. An Immulon 4 microplate is coated with 100 microliters per well of the Goat anti-human Fc solution and incubated overnight at 4° C. The coating solution is decanted from the plate, and blocking solution is dispensed at 200 microliters per well. The plate is incubated at room temperature for 1 hour. After the 1 hour incubation period, the blocking solution is decanted from the plate and 1 microgram/mL of TR7-Fc is dispensed at 100 microliters/well and incubated for 2 hours at room temperature. After the incubation, the plate is washed five times manually using a Wheaton manifold.
(§2) Antibodies corresponding to scFvs of the present invention are (previously) prepared in a low binding dilution plate using diluent. The antibodies are prepared in duplicate and are diluted from the stock concentration with 2.5 fold dilutions for the 7 subsequent wells. If a purified form of the antibody is available, the starting concentration is 5 micrograms/mL. The positive control (TR7-Fc) is diluted from 5 micrograms/mL. 100 microliters is transferred into the ELISA plate and pre-incubated for 30 minutes at room temperature. […]
(§3) After the one-hour incubation, the plate is decanted and washed with PBST five times and blotted. […] The plate is immediately read at 450 nm using the spectrometer from Molecular Devices.

TR7-Fc fusion protein [2] = biological target: T1, TR7-Fc fusion protein; assay: competition ELISA, inhibition of biotinylated TRAIL binding to captured TR7-Fc; first of two lots
Method: as §1, §2, §3

TR7-Fc fusion protein [3] = biological target: T1, TR7-Fc fusion protein; assay: competition ELISA, inhibition of biotinylated TRAIL binding to captured TR7-Fc; second of two lots
Method: as §1, §2, §3

TR7-Fc fusion protein [4] = biological target: T1, TR7-Fc fusion protein; assay: SPR (BIAcore 2000), TR7-Fc amine-coupled on CM5 chip, 1:1 Langmuir model, mean of three experiments; first lot
Method: (§4) TR7-Fc and TR2-Fc were immobilized on individual flow cells of a BIAcore CM5 sensor chip (BIAcore, Cat # BR-1000-14). Amine coupling (BIAcore, Cat # BR-1000-50) was used to covalently bind each receptor to the dextran matrix on the sensor chip. The optimal pH for this coupling was analyzed using preconcentration experiments ranging from pH 4-7 and was determined to be pH 4.0 based on the slope of the binding. The actual coupling was performed using the manual injection mode. A target level of 200 relative units (RU) was set as the goal for both flow cells. A response of 1000 RU correlates to a change in surface concentration of about 1 ng/mm² for proteins. The molecular weight of the TR7 and TR2 fusion proteins was nearly identical. The concentration of both receptors for immobilization was 5 μg/ml in 10 mM acetate, pH 4.0 (BIAcore, Cat # BR-1003-49). The entire experiment was performed at a flow rate of 5 μL/min. Contact time for the N-ethyl-N′-(3-dimethylaminoprolpyl)carbodiimide hydrochloride/Ethanolamine hydrochloride-NaOH, pH 8.5 (EDC/NHS) injection was 3 minutes. The ethanolamine was injected for 3 minutes.
(§5) Analysis of CM005G08 kinetics was performed using the BIAcore 2000 instrument with the 2000 control software, version 3.1.1. […] The off rate of CM005G08 was determined by washing the complex in the presence of HBS-EP buffer for 10 minutes. […]

TR7-Fc fusion protein [5] = biological target: T1, TR7-Fc fusion protein; assay: SPR (BIAcore 2000), TR7-Fc amine-coupled on CM5 chip, 1:1 Langmuir model, mean of three experiments; second lot
Method: as §4, §5

Row | IC50 (TR7-Fc fusion protein [1]) | IC50 (TR7-Fc fusion protein [2]) | IC50 (TR7-Fc fusion protein [3]) | Kd (TR7-Fc fusion protein [4]) | koff (TR7-Fc fusion protein [4]) | Kd (TR7-Fc fusion protein [5]) | koff (TR7-Fc fusion protein [5]) | Binder
1 | 1.77 nM | – | – | – | – | – | – | TRAIL (ligand, also called soluble TRAIL ligand; AIM-I) TSEETISTVQEKQQNISPLVRERGPQRVAAHITGTRGRSNTLSSPNSKNEKALGRKINSWESSRSGHSFLSNLHLRNGELVIHEKGFYYIYSQTYFRFQEEIKENTKNDKQMVQYIYKYTSYPDPILLMKSARNSCWSKDAEYGLYSIYQGGIFELKENDRIFVSVTNEHLIDMDHEASFFGAFLVG
2 | – | 5.3 nM | 6.89 nM | 0.25 nM | 0.00266 s⁻¹ | 0.33 nM | 0.00268 s⁻¹ | whole IgG1 antibody comprising the VH and VL domains of the CM005G08 scFv (antibody, V domains shown, 3.75 ug/mL = 25 nM implies a whole IgG; also called CM005G08 (IgG1 format); anti-TR7 antibody) VH: EVQLVQSGGGVERPGGSLRLSCAASGFTFDDYGMSWVRQAPGKGLEWVSGINWNGGSTGYADSVKGRVTISRDNAKNSLYLQMNSLRAEDTAVYYCAKILGAGRGWYFDLWGKGTTVTVSS VL: SSELTQDPAVSVALGQTVRITCQGDSLRSYYASWYQQKPGQAPVLVIYGKNNRPSGIPDRFSGSSSGNTASLTITGAQAEDEADYYCNSRDSSGNHVVFGGGTKLTVLG
